Patent publication US12180255B2, “Compositions and methods for derepressing RE1 silencing transcription factor target genes” (Alcamena Stem Cell Therapeutics, LLC, priority 2019, dated 2024)
[ ]: non-standard residue; d: D form. ξ: configuration not given here. ξGly(dodecyl) = CCCCCCCCCCCCC(N)C(=O)O

Experiments:
CTDSP1 = biological target: T1, CTDSP1 (Homo sapiens, UniProt Q9GZU7); assay: In vitro CTDSP1 phosphatase activity on phosphorylated REST peptide; format: biochemical; conditions: for Relative Phosphatase activity: 1 μM peptide-GST fusion, relative to GST control, substrate TEDpSPPpSPPLPKEN; for inhibition of phosphatase activity: 1 μM, relative to control (GST)
T1 construct: GSGS linker + His6 (C)
T1 sequence (Q9GZU7 with tags, fused parts or gaps): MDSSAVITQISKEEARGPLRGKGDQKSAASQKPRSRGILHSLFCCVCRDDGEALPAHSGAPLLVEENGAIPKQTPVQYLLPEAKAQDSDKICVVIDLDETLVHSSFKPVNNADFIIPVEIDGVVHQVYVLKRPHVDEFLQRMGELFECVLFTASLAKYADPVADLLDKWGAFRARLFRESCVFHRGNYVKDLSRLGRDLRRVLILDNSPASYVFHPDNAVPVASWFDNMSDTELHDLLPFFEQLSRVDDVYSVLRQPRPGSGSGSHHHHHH
Method: FIG. 25. In vitro CTDSP1 phosphatase activity (relative to GST control) on the REST peptide (TEDpSPPp[…] (SEQ ID NO: 329)) as a substrate after exposure to 1 μM of RPP (SEQ ID NO: 1) or one of its variants (Table 3).
FIG. 26. […] N=5, error bars are standard deviation.
Results: FIG. 25—The top 51 most abundant RPP variants identified in the RNA display/protein evolution screen are listed in-Table 3 in the order of most (V1) to least (V51) abundant peptides. The primers used to make these peptides are listed in-Table 5. A phosphatase activity screen (Table 6, FIG. 25) was used to assess the ability of the top 51 RPPV to inhibit CTDSP1 phosphatase activity at amino acids 861 and 864 on the endogenous phosphorylated REST peptide (TEDpSPPp[…] (SEQ ID NO: 329)).
The phosphorylated REST peptide (TEDpSPPp[…] (SEQ ID NO: 329)) was synthesized by GeneScript. Phosphatase reactions were performed with 10 mM Tris pH 8, 10 mM MgCl2, 100 nM CTDSP1, 0.5 μM phosphate sensor (Thermo Fischer), 50 μM of REST peptide and various concentrations of peptide-GST fusions at room temperature for 10 min. All assays were performed in 96-well pates (Corning P/N 3686) rinsed with water 10 times. Fluorescence was measured by BioTek Synergy HTX using kinetic read with excitation at 420/27 nm and emission at 485/20 nm.

L5 DRGs = assay: qRT-PCR mRNA expression in ex vivo cultured L5 DRGs; format: cell-based, Sprague Dawley rat; conditions: DRG; 1 μM; 48 h
Method: FIG. 15. […] Error bars =standard error of the mean.
L5 DRGs were dissected from adult male rats and plated in 12-well plates pre-coated with poly-D-Lysine (PDL) and laminin in a minimal volume of medium (250 ul Neurobasal™-A medium (GIBCO) supplemented with B27 (GIBCO), 50 ng/ml NGF (Sigma-Aldrich) and penicillin streptomycin) to allow attachment to the culture plate. One day after plating, DRGs were incubated with RPP (SEQ. ID NO: 12: 1 μM, 3 μM or 10 μM in culture medium, FIGS. 14 and 16; SEQ ID NOS: 13 and 14: 3 μM, FIG. 15) for 48 h. For RNA expression analysis, DRGs were lysed in 300 μl of Qiazol in a 1.5 ml tube containing Bullet Blender Pink Beads using a Bullet Blender Tissue Homogenizer (NextAdvance). Total RNA was extracted using RNeasy Midi Kit (Qiagen) according to manufacturer's instructions. Purified RNA was quantified with NanoDrop 2000 (ThermoFIsher), and reverse transcription was run using High Capacity cDNA Reverse Transcription Kit (Applied Biosystems) and 2 ng/ul RNA per reaction. For qRT-PCR, 5 ul of cDNA (corresponding to 10 ng of RNA) were mixed with to 10 ul SsoAdvanced™ Universal SYBR® Green Supermix (BioRad) and 1 ul of each primer (final primer concentration 500 nM each). Reactions were run in triplicates in a QuantStudio™ 7 Flex Real-Time PCR system (Applied Biosystems). Amplification data were analyzed using the comparative cycle threshold (ΔΔCt) method and β-actin as calibrator. Primers were as follows: β-actin: F-[…] (SEQ ID NO: 340), R-[…] (SEQ ID NO: 333); KV4.3: F-[…] (SEQ ID NO: 341), R-[…] (SEQ ID NO: 342); KV7.2 F-[…] AG (SEQ ID NO: 343), R-[…] (SEQ ID NO: 344); OPRM1: F-[…] (SEQ ID NO: 345), R-[…] (SEQ ID NO: 346).

MCAEDLQPPPLLEAHCGSDSGRKKRRQC [v43]
Relative Phosphatase activity (CTDSP1): 0.97

MCAGDLEQPEPPVAKKKKKNC [v33]
Relative Phosphatase activity (CTDSP1): 0.00 | inhibition of phosphatase activity (CTDSP1): 100%

MCAGDLKPPETTMSKKNC [v39]
Relative Phosphatase activity (CTDSP1): 0.59

MCIADPEPPEAQLPEGNC [v14]
Relative Phosphatase activity (CTDSP1): 0.54

MCNEALEPPPLRKEHC [v36]
Relative Phosphatase activity (CTDSP1): 0.68

MCNGDLERPEPPVAKEYC [v34]
Relative Phosphatase activity (CTDSP1): 0.74

MCPEDLERPPLTKEHC [v37]
Relative Phosphatase activity (CTDSP1): 0.16

MCPEDLQPPEPALPEKKKKKIVVLALVVKSAVSVGVV [v41]
Relative Phosphatase activity (CTDSP1): 0.46

MCPGDLKQPEPPMPKEYC [v11]
Relative Phosphatase activity (CTDSP1): 0.13

MCSEAQEPPESRLPQVNC [v16]
Relative Phosphatase activity (CTDSP1): 0.79

MCSEDPEPPKTTMTKKNC [v31]
Relative Phosphatase activity (CTDSP1): 0.43

MCSVDLQPPARLRPMVNC [v20]
Relative Phosphatase activity (CTDSP1): 0.13

MCSVDLQPPARLRPMVNC [v46]
Relative Phosphatase activity (CTDSP1): 0.37

MCTAAPEPPEPPVSKEYC [v18]
Relative Phosphatase activity (CTDSP1): 0.43

MCTAAPEPPEPQLPQANC [v44]
Relative Phosphatase activity (CTDSP1): 0.53

MCTADLEPPEPRMEKKKVDC [v5]
Relative Phosphatase activity (CTDSP1): 0.49

MCTADLKPPKTTMTKQNC [v10]
Relative Phosphatase activity (CTDSP1): 0.84

MCTADLQPPEASLPQQNC [v49]
Relative Phosphatase activity (CTDSP1): 0.58

MCTEALEPPEPPLTKENC [v47]
Relative Phosphatase activity (CTDSP1): 0.20

MCTEAPAPPEPALPKKKKKKNC [v26]
Relative Phosphatase activity (CTDSP1): 0.46

MCTEAPAPPEPALPKKKKKNC [v2]
Relative Phosphatase activity (CTDSP1): 0.66

MCTEAPAPPEPALPKKKKKNC [v27]
Relative Phosphatase activity (CTDSP1): 0.19

MCTEAPAPPEPALPKKKKNC [v4]
Relative Phosphatase activity (CTDSP1): 0.67

MCTEDLEPPEPPLPKENC [v1]
inhibition of phosphatase activity (CTDSP1): approximately 60%

MCTEDLEPPERPLPREIC [v38]
Relative Phosphatase activity (CTDSP1): 0.28

MCTEDLEPPKATMTKKDC [v12]
Relative Phosphatase activity (CTDSP1): 0.41

MCTEDLKPPEASLPEENC [v32]
Relative Phosphatase activity (CTDSP1): 0.89

MCTEDLKPPEPPLPKENC [v35]
Relative Phosphatase activity (CTDSP1): 0.07 | inhibition of phosphatase activity (CTDSP1): approximately 90%

MCTEDLQLPKTTMTKEYC [v19]
Relative Phosphatase activity (CTDSP1): 0.76

MCTEDLQPPEPQLPEVNC [v23]
Relative Phosphatase activity (CTDSP1): 0.60

MCTEDLQPPKTTMAEKYC [v30]
Relative Phosphatase activity (CTDSP1): 0.62

MCTEDLQQPERSQPMESC [v40]
Relative Phosphatase activity (CTDSP1): 0.29

MCTEDLQSPKTTMTKENC [v7]
Relative Phosphatase activity (CTDSP1): 0.24

MCTEDLQSPKTTMTKENC [v28]
Relative Phosphatase activity (CTDSP1): 0.33

MCTEDMEPRKTTMTKKYC [v25]
Relative Phosphatase activity (CTDSP1): 0.63

MCTEDQEQQEEQLPEENC [v9]
Relative Phosphatase activity (CTDSP1): 0.65

MCTEDQERPPVTKEDC [v13]
Relative Phosphatase activity (CTDSP1): 0.20

MCTEVLVPRTTSGKGRLWFWLWSQKGHPSASACGS [v42]
Relative Phosphatase activity (CTDSP1): 0.48

MCTGDLKLPEPPMSKKKKKNC [v29]
Relative Phosphatase activity (CTDSP1): 0.17

MCTGDLQPPEAQVIEVNC [v22]
Relative Phosphatase activity (CTDSP1): 0.59

MCTGDLQPPESRQPQVNC [v21]
Relative Phosphatase activity (CTDSP1): 0.26

MCTGDLQPPKTTVSKKDC [v6]
Relative Phosphatase activity (CTDSP1): 0.77

MCTGVQEPPEATLPKKNC [v15]
Relative Phosphatase activity (CTDSP1): 0.70

MCTKDLAPQAPPLLKENC [v51]
Relative Phosphatase activity (CTDSP1): 0.71

MCTKHLEPPGPPLPQENC [v17]
Relative Phosphatase activity (CTDSP1): 0.24

SEQ ID NO: 14: RPP fused to an intracellular transport peptide and cyclized; sequence in Table 19 (cyclo([dR][dR][ξGly(dodecyl)][dR][dR][dR][dK][dP][dL][dP][dP][dE][dP][dP][dE][dL][dD][dE]); SMILES CCCCCCCCCCCCC1NC(=O)[C@@H](CCCNC(=N)N)NC(=O)[C@@H](CCCNC(=N)N)NC(=O)[C@@H](CCC(=O)O)NC(=O)[C@@H](CC(=O)O)NC(=O)[C@@H](CC(C)C)NC(=O)[C@@H](CCC(=O)O)NC(=O)[C@H]2CCCN2C(=O)[C@H]2CCCN2C(=O)[C@@H](CCC(=O)O)NC(=O)[C@H]2CCCN2C(=O)[C@H]2CCCN2C(=O)[C@@H](CC(C)C)NC(=O)[C@H]2CCCN2C(=O)[C@@H](CCCCN)NC(=O)[C@@H](CCCNC(=N)N)NC(=O)[C@@H](CCCNC(=N)N)NC(=O)[C@@H](CCCNC(=N)N)NC1=O)
Increase, Nav1.8 mRNA (L5 DRGs): 13x
